Test results: patent US20190169286A1 (Chugai, published 2019)

Experiments:
[1] = molecular target: T1, human IL-8 (human, UniProt P10145 23-99, limits assumed); assay: SPR Biacore T200, Protein A/G capture, IL-8 analyte, pH 5.8, 37C
T1 construct: also called hIL-8; hIL8
Experimental: (§1) An appropriate amount of Protein A/G (PIERCE) was immobilized onto Sensor chip CM4 (GE Healthcare) by the amine coupling method and the antibodies of interest was captured. […] To regenerate the sensor chip, 10 mM glycine-HCl at pH 1.5 was used. All measurements were carried out at 37° C. […] The BIACORE T200 Evaluation Software (GE Healthcare) was used to calculate each parameter.

[2] = molecular target: T1, human IL-8; assay: SPR Biacore T200, Protein A/G capture, IL-8 analyte, pH 7.4, 37C
Experimental: as §1

[3] = molecular target: T1, human IL-8; assay: as above; remark: listed apart in the source
Experimental: as §1

[4] = molecular target: T1, human IL-8; assay: SPR Biacore T200, Protein A/G capture, pH 5.8, 37C;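 as to Kd: antibodies captured by Protein A/G amine-coupled onto a CM4 sensor chip, with kinetic parameters derived using Biacore T200 Evaluation Software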
Experimental: (§2) An appropriate amount of Protein A/G (PIERCE) was immobilized onto the Sensor chip CM4 (GE Healthcare) by the amine coupling method and the antibodies of interest were captured. […] To regenerate the sensor chip, 25 mM NaOH and 10 mM glycine-HCl (pH 1.5) were used. […] The BIACORE T200 Evaluation Software (GE Healthcare) was used to calculate each parameter.

[5] = molecular target: T1, human IL-8; assay: SPR Biacore T200, Protein A/G capture, pH 5.8, 37C; remark: listed apart in the source;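 as to Kd: antibodies captured by Protein A/G amine-coupled onto a CM4 sensor chip, with kinetic parameters derived using Biacore T200 Evaluation Software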
Experimental: as §2

[6] = molecular target: T1, human IL-8; assay: SPR Biacore T200, Protein A/G capture, IL-8 analyte, pH 5.8, 37C; remark: listed apart in the source
Experimental: as §1

[7] = molecular target: T1, human IL-8; assay: SPR Biacore T200, Protein A/G capture, pH 7.4, 40C;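 as to Kd: antibodies captured via Protein A/G, which was amine-coupled to a CM4 sensor chip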
Experimental: as §2

[8] = molecular target: T1, human IL-8; assay: SPR IL-8 binding level per 1000 RU captured Ab, pH 7.4, 40C; 1 week 50C in PBS vs initial
[9] = molecular target: T1, human IL-8; assay: SPR Biacore T200, Protein A/G capture, pH 7.4, 40C; remark: listed apart in the source;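 as to Kd: antibodies captured via Protein A/G, which was amine-coupled to a CM4 sensor chip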
Experimental: as §2

T1 sequence (P10145 23-99 limits assumed): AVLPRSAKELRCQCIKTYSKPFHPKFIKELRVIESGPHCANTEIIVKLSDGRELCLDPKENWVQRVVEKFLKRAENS

Binder | koff [1] | kon [1] | koff [2] | kon [2] | koff [3] | kon [3] | koff [4] | kon [4] | koff [5] | koff [6] | kon [6] | koff [7] | kon [7] | Ratio of IL-8 Binding Amount (Thermal Acceleration/Initial) [8] | Kd [5] | Kd [9]
H89/L118 (H89-IgG1 / L118-k0MT) (antibody, V domains shown, also called H0089/L0118) VH: QVQLVESGGGLVQPGGSLRLSCAASGFTFSDYYLSWVRQAPGKGLEWVGLIRNKANGYTREYSASVKGRFTISRDDSKNSLYLQMSSLKTEDTAVYYCARENHRYDVELAYWGQGTLVTVSS VL: DIQMTQSPSSLSASVGDRVTITCRASEIIYSYLAWYQQKPGKAPKLLIYHAKTHADGVPSRFSGSGSGTDFTFTISSLQPEDIATYYCKHHFGFPRTFGQGTKVEIKR | 0.0039 s⁻¹ | 123000 M⁻¹ s⁻¹ | 0.000114 s⁻¹ | 945000 M⁻¹ s⁻¹ | 2.13e-05 s⁻¹ | 580000 M⁻¹ s⁻¹ | 0.00628 s⁻¹ | 129000 M⁻¹ s⁻¹ | 0.0063 s⁻¹ | 0.00384 s⁻¹ | 179000 M⁻¹ s⁻¹ | 0.000129 s⁻¹ | 751000 M⁻¹ s⁻¹ | – | – | –
H1040/L0442 (antibody, human IgG1, kappa, name in Kabat numbering, V domains shown, L442 = L395 + S31E) VH: QVQLVESGGGLVQPGGSLRLSCAASGFTFSEYYLSWVRQAPGKGLEWVGLIRNKDNHHHPEYSASVKGRFTISRDDSKNSLYLTMSDLKTEDTAVYYCARENHRYDVELAYWGQGTLVTVSS VL: DIQMTQSPSSLSASVGDRVTITCRASEIIYEYLAWYQQKPGKAPKLLIYKAKTHADGVPSRFSGSGSGTDFTFTISSLQPEDIATYYCKHHFGFPRTFGQGTKVEIKR | – | – | – | – | – | – | – | – | 0.21 s⁻¹ | – | – | – | – | 0.49 | 140 nM | 0.34 nM
H1009/L395 (H1009-IgG1m / L395-k0MT) (antibody, also called H1009/L0395) heavy: not shown light: DIQMTQSPSSLSASVGDRVTITCRASEIIYSYLAWYQQKPGKAPKLLIYKAKTHADGVPSRFSGSGSGTDFTFTISSLQPEDIATYYCKHHFGFPRTFGQGTKVEIKRTVAAPSVFIFPPSDEQLKSGTASVVCLLNNFYPREAKVQWKVDNALQSGNSQESVTEQDSKDSTYSLSSTLTLSKADYEKHKVYACEVTHQGLSSPVTKSFNRGEC | – | – | – | – | – | – | – | – | 0.01 s⁻¹ | – | – | – | – | 0.64 | – | –
